{
  "source": "patent US10487153B2",
  "about": "“Carbonic anhydrase IX-specific antibodies and uses thereof” (National Research Council of Canada, priority 2015, dated 2019)",
  "origin": "cited, not measured here",
  "molecular_target": "T1, CA-IX (Homo sapiens, UniProt Q16790)",
  "T1 construct": "host or cells: patients' own tumour tissue (endogenous)",
  "details": ">6-year span; compared to a placebo; cited from earlier work",
  "data": [
    {"substance": "cG250: chimeric version of anti-CA-IX mAb G250, developed as a therapeutic antibody", "values": [
      {"measurement": "disease-free survival rate of patients", "result": "not improve the disease-free survival rate"}
    ]}
  ]
}
